Measured values taken from patent US20240035010, “COMPOSITIONS COMPRISING A VARIANT POLYPEPTIDE AND USES THEREOF” (Arbor Biotechnologies, Inc., published 2024).
Positions count from the first letter of the chain named.

Assays:
[1] = target: T1, variant nuclease D55G/E736G combination (P14R, D32R, I61R, E311R, D55G, E736G); experiment: cell_activity; PAM 5'-TTTG-3'; details: tags: pcDNA3.1 expression
T1 chain: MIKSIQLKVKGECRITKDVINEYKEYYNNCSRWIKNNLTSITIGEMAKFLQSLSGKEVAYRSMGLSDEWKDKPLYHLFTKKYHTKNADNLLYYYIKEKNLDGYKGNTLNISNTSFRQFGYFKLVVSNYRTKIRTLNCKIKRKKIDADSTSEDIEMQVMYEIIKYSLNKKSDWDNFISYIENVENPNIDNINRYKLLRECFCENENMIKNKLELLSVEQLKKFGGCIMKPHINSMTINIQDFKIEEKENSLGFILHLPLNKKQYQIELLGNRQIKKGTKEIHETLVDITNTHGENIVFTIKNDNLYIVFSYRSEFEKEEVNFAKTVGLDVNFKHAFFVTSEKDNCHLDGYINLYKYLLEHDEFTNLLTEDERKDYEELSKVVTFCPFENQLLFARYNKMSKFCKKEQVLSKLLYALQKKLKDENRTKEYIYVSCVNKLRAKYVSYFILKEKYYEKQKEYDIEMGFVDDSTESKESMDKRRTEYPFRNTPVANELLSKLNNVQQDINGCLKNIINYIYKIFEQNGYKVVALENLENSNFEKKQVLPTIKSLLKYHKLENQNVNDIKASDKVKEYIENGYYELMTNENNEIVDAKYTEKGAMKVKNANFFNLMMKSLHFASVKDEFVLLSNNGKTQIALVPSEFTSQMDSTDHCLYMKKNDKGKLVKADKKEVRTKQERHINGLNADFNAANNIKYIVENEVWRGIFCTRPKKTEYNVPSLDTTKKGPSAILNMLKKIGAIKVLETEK
Method: (§1) Approximately 16 hours prior to transfection, 25,000 HEK293T cells in DMEM/10% FBS+Pen/Strep (D10 media) were plated into each well of a 96-well plate. On the day of transfection, the cells were 70-90% confluent. For each well to be transfected, a mixture of Lipofectamine 2000™ and Opti-MEM™ was prepared and incubated at room temperature for 5 minutes (Solution 1). After incubation, the Lipofectamine 2000™:Opti-MEM™ mixture was added to a separate mixture containing nuclease plasmid, RNA guide plasmid, and Opti-MEM™ (Solution 2). In the case of negative controls, the RNA guide plasmid was not included in Solution 2. Solutions 1 and 2 were mixed by pipetting up and down, then incubated at room temperature for 25 minutes. Following incubation, the Solution 1 and 2 mixture was added dropwise to each well of a 96-well plate containing the cells. Approximately 72 hours post transfection, cells were trypsinized by adding TrypLE™ to the center of each well and incubating at 37° C. for approximately 5 minutes. D10 media was then added to each well and mixed to resuspend cells. The resuspended cells were centrifuged at 500 g for 10 minutes to obtain a pellet, and the supernatant was discarded. The cell pellet was then resuspended in QuickExtract™ buffer (Lucigen®), and cells were incubated at 65° C. for 15 minutes, 68° C. for 15 minutes, and 98° C. for 10 minutes.
(§2) This Example describes assessment of indel activity at multiple target sites using the wild-type polypeptide of SEQ ID NO: 3 or variant polypeptides of Table 4. The variant polypeptides were cloned into a pcDNA3.1 backbone (Invitrogen), and the cells were transfected as described in Example 7.
(§3) The percentage of NGS reads containing indels (% indels) were calculated. For each variant polypeptide and target, % indels were averaged across two bioreplicates and two technical replicates. These values were then compared to % indels of the wild-type polypeptide of SEQ ID NO: 3.

[2] = target: T2, variant nuclease K35G combination (P14R, D32R, I61R, E311R, K35G); experiment: cell_activity; PAM 5'-TTTG-3'; details: tags: pcDNA3.1 expression
T2 chain: T1 chain with K35G, G55D, G736E
Method: as §1, §2, §3

B1: AAVS1 crRNA ; AAVS1 target (ssRNA ; dsDNA)
RNA: CUUGUUGUAUAUGUCCUUUUAUAGGUAUUAAACAACUGAGAAUGGUGCGUCCUAGG
DNA 1: TGAGAATGGTGCGTCCTAGG
DNA 2: CCTAGGACGCACCATTCTCA
[1]
  indel activity: 5.76 fold of WT
[2]
  indel activity: 5.66 fold of WT
